Columns and labels:
[1] = biological target: hetero-dimerizing leucine zipper helix from the c-jun subunit of the AP-1 transcription factor; experiment: cell-based or functional assay
[2] = test system: TG1 cells; experiment: Activation of TEM-1 β-lactamase fragment complementation by disulfide-assisted fos-jun interaction (plating on ampicillin); assay type: cell-based, E. coli; conditions: without a stabilizing peptide; same expression conditions
Description: Cysteines were added to the sequences of α197 and ω198, between the break-point termini and the linkers leading to the heterologous interactors.
Disulfide formation was made to be more dependent on the heterologous interaction by two modifications. First, disulfide formation can be inhibited by inclusion of a reducing agent in the growth medium. […] Secondly, the cysteines were shifted by one residue each away form the break-point and into the β-lactamase sequence, so that they became separated in the native fold by an additional ˜8 Å.

hetero-dimerizing leucine zipper helix from the c-jun subunit of the AP-1 transcription factor, sequence (P05412 280-308): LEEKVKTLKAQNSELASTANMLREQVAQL

“hetero-dimerizing leucine zipper helix from the c-fos subunit of the AP-1 transcription factor (peptide)” gave a Hi Amp (max ampicillin with >10% plating), break-point A227/G228, +Fos/Jun [1] of 50 µg/mL, a Hi Amp (max ampicillin with >10% plating), break-point A227/G228, +S-S, +Fos/Jun [1] of 200 µg/mL and a Hi Amp (max ampicillin with >10% plating), break-point E63/E64, +S-S, +Fos/Jun [1] of 25 µg/mL. For the same molecule, the Hi Amp (max ampicillin with >10% plating), break-point E197/L198, +Fos/Jun [1] was 50 µg/mL, the Hi Amp (max ampicillin with >10% plating), break-point E197/L198, +S-S, +Fos/Jun [1] was 100 µg/mL and the Hi Amp (max ampicillin with >10% plating), break-point G253/K254, +Fos/Jun [1] was 50 µg/mL. For the same molecule, the Hi Amp (max ampicillin with >10% plating), break-point G253/K254, +S-S, +Fos/Jun [1] was 400 µg/mL, the Hi Amp (max ampicillin with >10% plating), break-point K215/V216, +Fos/Jun [1] was 25 µg/mL and the Hi Amp (max ampicillin with >10% plating), break-point K215/V216, +S-S, +Fos/Jun [1] was 100 µg/mL. It also gave a Hi Amp (max ampicillin with >10% plating), break-point N52/S53, +S-S, +Fos/Jun [1] of 25 µg/mL, a Hi Amp (max ampicillin with >10% plating), break-point P174/N175, +Fos/Jun [1] of 50 µg/mL and a Hi Amp (max ampicillin with >10% plating), break-point P174/N175, +S-S, +Fos/Jun [1] of 200 µg/mL. For the same molecule, the Hi Amp (max ampicillin with >10% plating), break-point Q99/N100, +S-S, +Fos/Jun [1] was 25 µg/mL, the activation index, break-point P174/N175, fos-jun with disulfide [1] was 1e+07 and the activation index, α197/ω198 with break-point cysteines, 10 mM DTT, 100 µg/ml ampicillin [1] was greater than 1000 fold. For the same molecule, the activation index, α197/ω198 with cysteines shifted by one residue, 50 µg/ml ampicillin [1] was greater than 100000, the ampicillin concentration of recovery, α197/ω198 with break-point tri-peptides, strain DH5α [1] was 800 µg/mL and the ampicillin concentration of recovery, α197/ω198 with break-point tri-peptides, strain TG1 [1] was 400 µg/mL. The plating efficiency on 25 µg/ml ampicillin, wild-type α197-jun + fos-ω198 [1] was 30%, the plating efficiency on 50 µg/ml ampicillin, α197-fos + jun-ω198 alone [1] was 1% and the plating efficiency on 50 µg/ml ampicillin, α197-fos + jun-ω198 with GRE-trxA in trans [1] was 100%. It also gave a plating efficiency on 50 µg/ml ampicillin, α197/ω198 with cysteines shifted by one residue [1] of 10%, a plating efficiency on 100 µg/ml ampicillin, wild-type α197-jun + fos-ω198 (colonies per cell) [1] of less than 1e-06 and a plating efficiency on 400 µg/ml ampicillin, break-point G253/K254, fos-jun with disulfide [1] greater than 25%.

B1: wild-type TEM-1 β-lactamase: intact TEM-1 β-lactamase of E. coli (protein, UniProt P62593 24-286, looked up)
Beta-lactamase TEM: HPETLVKVKDAEDQLGARVGYIELDLNSGKILESFRPEERFPMMSTFKVLLCGAVLSRVDAGQEQLGRRIHYSQNDLVEYSPVTEKHLTDGMTVRELCSAAITMSDNTAANLLLTTIGGPKELTAFLHNMGDHVTRLDRWEPELNEAIPNDERDTTMPAAMATTLRKLLTGELLTLASRQQLIDWMEADKVAGPLLRSALPAGWFIADKSGAGERGSRGIIAALGPDGKPSRIVVIYTTGSQATMDERNRQIAEIGASLIKHW
In the case of B1, the “Ampicillin concentration on which cells plate” value [2] is reported as no more than 1000 µg/mL.

Reference: patent publication US7544477B2, “Circularly permutated, interaction-activated proteins” (KaloBios, Inc., priority 2000, dated 2009)
